Measured values published in patent US20140220040A1.

Biological target: Human LRP6-Fc (R&D Systems), recombinant human LRP6 containing the complete extracellular domain (human) (UniProt O75581)
Test: SPR (BIAcore), mAb captured on anti-mouse chip, Fc-antigen injected, 1:1 model

Chain of Human LRP6-Fc (R&D Systems), recombinant human LRP6 containing the complete extracellular domain (human) (O75581 20-1370 V1062I): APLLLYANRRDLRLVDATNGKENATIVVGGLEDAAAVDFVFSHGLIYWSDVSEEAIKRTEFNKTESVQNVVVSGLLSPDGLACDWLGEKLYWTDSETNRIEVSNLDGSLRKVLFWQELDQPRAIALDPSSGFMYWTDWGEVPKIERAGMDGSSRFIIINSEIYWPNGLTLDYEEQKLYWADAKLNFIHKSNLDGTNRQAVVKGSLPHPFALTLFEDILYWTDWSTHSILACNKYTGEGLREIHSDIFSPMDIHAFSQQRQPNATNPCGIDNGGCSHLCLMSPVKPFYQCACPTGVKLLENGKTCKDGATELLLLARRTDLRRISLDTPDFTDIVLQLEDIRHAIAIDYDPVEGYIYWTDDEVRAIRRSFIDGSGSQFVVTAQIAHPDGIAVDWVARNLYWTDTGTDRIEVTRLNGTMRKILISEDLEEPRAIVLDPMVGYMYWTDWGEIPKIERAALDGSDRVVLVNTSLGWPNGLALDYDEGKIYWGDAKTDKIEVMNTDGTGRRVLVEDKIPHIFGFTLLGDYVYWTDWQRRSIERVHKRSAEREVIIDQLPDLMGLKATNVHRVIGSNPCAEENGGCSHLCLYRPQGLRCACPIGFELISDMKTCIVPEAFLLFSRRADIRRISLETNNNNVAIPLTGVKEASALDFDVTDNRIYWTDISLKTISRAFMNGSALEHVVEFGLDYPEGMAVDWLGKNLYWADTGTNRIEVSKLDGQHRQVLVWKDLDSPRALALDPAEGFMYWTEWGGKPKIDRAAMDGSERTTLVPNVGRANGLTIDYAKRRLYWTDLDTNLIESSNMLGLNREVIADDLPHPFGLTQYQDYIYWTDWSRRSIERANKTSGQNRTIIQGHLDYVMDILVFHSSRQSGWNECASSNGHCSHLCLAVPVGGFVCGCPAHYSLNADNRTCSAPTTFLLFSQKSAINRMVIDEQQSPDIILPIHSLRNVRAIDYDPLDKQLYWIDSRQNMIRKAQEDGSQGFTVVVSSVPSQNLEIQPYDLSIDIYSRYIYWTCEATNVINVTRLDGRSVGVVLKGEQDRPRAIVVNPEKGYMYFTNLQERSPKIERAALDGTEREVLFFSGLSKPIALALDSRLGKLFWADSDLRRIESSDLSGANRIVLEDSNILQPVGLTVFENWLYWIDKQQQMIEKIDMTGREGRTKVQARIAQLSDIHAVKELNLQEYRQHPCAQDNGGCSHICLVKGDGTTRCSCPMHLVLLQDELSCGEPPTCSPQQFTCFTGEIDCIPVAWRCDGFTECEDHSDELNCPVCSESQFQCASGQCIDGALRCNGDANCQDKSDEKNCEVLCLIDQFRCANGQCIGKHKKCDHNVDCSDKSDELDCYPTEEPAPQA

Kd	koff	kon	Binder
2.05 nM	5.7e-05 s⁻¹	28000 M⁻¹ s⁻¹	anti-LRP6 monoclonal antibody 993.9 (antibody, part only; not given: light chain, not determined, V domains shown, part only) VH: DVQVQESGPGLVKPSQSLSLTCSVTGYSITSGYYWNWIRQFPGNKLEWMGYISYDGRNNYNPSLKNRISITRDTSKNQFFLKLNSVTTEDTATYYCARENSNYPYYYDYWGQGTTLTVSSAKT
1.09 nM	4.51e-05 s⁻¹	41400 M⁻¹ s⁻¹	anti-LRP6 monoclonal antibody 995.5 (antibody, part only; not given: light chain, not determined, V domains shown, part only) VH: RMKVLSLLYLLTAIPGILSDVQVQESGPGLVKPSQSLSLTCSVTGYSITSGYYWNWIRQFPGNKLEWMGYISYDGRNNYNPSLKNRISITRDTSKNQFFLKLNSVTTEDTATYYCARENSNYPYYYDYWGQGTTLTVSSAKT
